# Laboratory results as given in patent US20100144027.
# B1: protein of the present invention having an amino acid sequence shown in SEQ ID NO:1 (protein)
# chain: YDPEAASAPGSGNPCHEASAAQKENAGEDPGLARQAPKPRKQRSSLLEKGLDGAKKAVGGLGKLGKDAVEDLESVGKGAVHDVKDVLDSVL
# Biological target: enterokinase
protein,measurement,value
B1,amidolytic activity against the fluorescent peptide substrate for trypsin (increase in fluorescence intensity),a minimal proteolytic activity exhibited by enterokinase alone was significantly enhanced by the protein of the present invention immunoprecipitated from JAR cells
